One assay addresses T1, LexA-Rap1B G12V (Homo sapiens, G12V).
T1 chain: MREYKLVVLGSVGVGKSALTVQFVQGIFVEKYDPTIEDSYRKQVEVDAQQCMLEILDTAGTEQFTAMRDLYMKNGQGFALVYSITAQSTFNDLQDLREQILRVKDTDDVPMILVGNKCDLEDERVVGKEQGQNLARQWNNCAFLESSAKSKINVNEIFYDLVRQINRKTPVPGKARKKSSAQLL

Assay [1] has as its target T2, VHH-Fc A64 (immunoprecipitation).
T2 construct: VHH A64; source: HEK293, transfected; 2 μg used
The assay is described as follows: co-IP; immunoprecipitation: VHH-Fc (1-2 μg) on Protein A/G magnetic beads incubated overnight at 4 °C with human platelet lysates (~200 μg protein) loaded with GTPγS or from platelets stimulated with TRAP or ADP; Rap1 western blot. The note with it: one partner purified.

The target of assay [2] is T3, VHH-hFcS B89.
T3 construct: as the VHH of m19 (A47); Bivalent VHH-Fc; Some immunoprecipitations name only 'VHH-Fc B89' without the kind of Fc; also called VHH-Fc B89; source: HEK293, transfected (pHLSec), serum-free medium, purified
The assay is described as above. The note with it: one partner purified.

The next assay addresses T4, VHH-hFcS B14.
T4 construct: as the VHH of m19 (A47); Bivalent VHH-Fc; also called VHH-Fc B14; source: HEK293, transfected (pHLSec), serum-free medium, purified
In words: ELISA; VHH-FcS (1.25 μg/mL) captured on goat antihuman Fc (Fab')2-coated plates; human platelet lysates (6 × 10^6 platelets/well) loaded with GTPγS, or PRP before and after stimulation with TRAP or ADP; detection with anti-Rap1 monoclonal (Abcam) or polyclonal (Merck) antibody. Conditions: one partner purified.

The target in assay [3] is T5, VHH-hFcS A47.
T5 construct: VHH A47; Bivalent VHH-Fc; also called VHH-FcS A47; VHH-Fc silent A47; source: HEK293, transfected (pHLSec), serum-free medium, purified
The assay is described as above. Conditions: one partner purified.

The target of assay [4] is T5, VHH-hFcS A47. The assay is described as follows: BLI; OCTET R2; VHH-hFcS (2.5 μg/mL) on protein A biosensors; Rap1B loaded with GTPγS in solution at 0.04, 0.13, 0.4, 1.2 μM; 20 mM Tris-HCl pH 7.4, 0.1% BSA, 200 mM NaCl, 2 mM EDTA, 10 mM MgCl2; 25 °C; 1:1 fit. Conditions: both partners purified.
In assay [5] the target is T3, VHH-hFcS B89. The assay is described as above. The note with it: both partners purified.

B1: A141 (VHH)
VHH: EVQLQASGGGFVQPGGSLRLSCAASGATSKLSAMGWFRQAPGKEREFVSAISAQNDFWTYYADSVKGRFTISRDNSKNTVYLQMNSLRAEDTATYYCAHHFPSTAKSYWGQGTQVTVSS
For the molecule B1, in the assay with LexA-Rap1B G12V, the binding result is on record as “binds”.

B2: Rap1 of human platelets (natural protein, human (endogenous in platelets), UniProt P61224 1-184, looked up)
chain: MREYKLVVLGSGGVGKSALTVQFVQGIFVEKYDPTIEDSYRKQVEVDAQQCMLEILDTAGTEQFTAMRDLYMKNGQGFALVYSITAQSTFNDLQDLREQILRVKDTDDVPMILVGNKCDLEDERVVGKEQGQNLARQWNNCAFLESSAKSKINVNEIFYDLVRQINRKTPVPGKARKKSSC
notes: also called active Rap1; source: endogenous, human platelet lysate
Turning to B2, the binding result (in assay [1]; with VHH-hFcS B89 [2]; in the assay with VHH-hFcS B14; in the assay with VHH-hFcS A47 [3]) was “binds” throughout.

B3: A145 (VHH)
VHH: EVQLQASGGGFVQPGGSLRLSCAASGATWKHEIMGWFRQAPGKEREFVSAISSQPGLWDYYADSVKGRFTISRDNSKNTVYLQMNSLRAEDTATYYCATPGQRMIEYWGQGTQVTVSS
B3: in the assay with LexA-Rap1B G12V, the binding result was “binds”.

B4: MBP-HA Rap1B WT (natural protein, human, UniProt P61224-1 1-184, looked up)
chain: MREYKLVVLGSGGVGKSALTVQFVQGIFVEKYDPTIEDSYRKQVEVDAQQCMLEILDTAGTEQFTAMRDLYMKNGQGFALVYSITAQSTFNDLQDLREQILRVKDTDDVPMILVGNKCDLEDERVVGKEQGQNLARQWNNCAFLESSAKSKINVNEIFYDLVRQINRKTPVPGKARKKSSAQLL
notes: loaded with GTPγS or GDP before the assays; this is the only recombinant wild-type Rap1B it describes; also called human Rap1B; recombinant Rap1B; source: E. coli BL21DE3, purified (amylose resin); not shown: MBP, N-terminal, kept; HA, N-terminal, kept
B4: the Kd with VHH-hFcS A47 [4] was determined as 17.2 nM. In the assay with VHH-hFcS B89 [5], this molecule showed a Kd of 4.4 nM, a koff of 0.000513 s⁻¹ and a kon of 166000 M⁻¹ s⁻¹.
